These results are taken from patent US20040175379A1.

The target in this assay is biotinylated EpoR (Abbott CHO cell derived ref.#RB69084:4) (UniProt P19235). In words: immunofluorescence microscopy on EpoR-coated sheep red blood cells, MAB307 at 20 ug/ml.
Sequence of biotinylated EpoR (Abbott CHO cell derived ref.#RB69084:4) (P19235 25-250 limits assumed): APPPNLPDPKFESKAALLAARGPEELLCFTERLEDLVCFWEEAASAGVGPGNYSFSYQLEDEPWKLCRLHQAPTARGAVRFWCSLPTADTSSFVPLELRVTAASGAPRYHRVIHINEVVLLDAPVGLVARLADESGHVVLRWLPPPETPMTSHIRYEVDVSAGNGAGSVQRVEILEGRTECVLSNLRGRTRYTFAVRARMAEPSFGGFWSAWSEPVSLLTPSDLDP

As for “murine anti-EpoR antibody (R&D Systems Cat. #MAB307)”, the immunofluorescence score (arbitrary scale of 0-4) is 4 of 4.
